Substrate in the data set: OC[C@H]1OC(O)[C@H](O)[C@@H](O)[C@@H]1O
Briefly: Coupled active sites, HOCl production from glucose, APF assay (Table 9), linker LGKRGAGA
The format is biochemical, Rhodopirellula baltica / Penicillium amagasakiens. Particulars: fixed NaCl 20 mM, pH7.5, pH 7.5. The procedure: Each experiment was performed in triplicate.
The activity of the two active sites was then assessed in conjunction to each other (FIG. 1).
Briefly, the aim was to measure the production of HOCl from glucose and NaCl as respective substrates of the enzymes, using the APF probe. Two types of kinetics were performed: • i) kinetics at various concentrations of glucose and a fixed concentration of NaCl, and • ii) kinetics at various concentration of NaCl and a fixed concentration of glucose.

B1: RbMPO-LGKRGAGA-GOx chimera (Rhodopirellula baltica myeloperoxidase, SEQ ID NO: 10; linker SEQ ID NO: 5; Penicillium amagasakiens glucose oxidase, SEQ ID NO: … (protein)
chain: MLFWSKRTRKHPGRKRRRLRSEQLESRQLLAADFGGYRHNIYDAEDVNDDGRVSAIDALLVINAMTSETSRDENVFTDVNGDGRRSALDALRVINRIERGDVFPIDTSGDEDLNTLLPEMPSEVRSIDGSGNNPNDHLWGSVGQRLIRMAPAAYGDGISTLAGANRPSAREVSNVLSAMNTSQVLNDRGLSAFVYVWGQFIDHDLGLTESDEHGEAIDISVPEGDLWFDPMGSGEAVIPMTRTPIADGTGTSVGNPAQQFNQITAFIDGSMVYGSDAATAERLRTFAGGRLAISDNGLLPMDESGMVIAGDVRASENVGLTAIQTLFVREHNRLADEIFAADPEATDEEIYQRARLVVASLIQSITYNEFLPALLGQRAMDSYRGYDASVNPGIANEFSTAAFRLGHSTLRDEVGFMSNDGRESKDEMELKDAFFHASMLEETGIDSLLKFDASVQAQEIDLAVVDSLRNFLFGPPGAGGLDLVAMNIQRGRDHGLSDYNTTRQAYGLDRVETFDQITGDVELQQKLASLYGTVDNIDLWVGLMAEDHQHDASVGELTGLIIADQFQRTRDGDRFFYKNVLTDSEVESIERSTLADLIERNTSVDGLQENVFFMQVELRGRVILASSIPPNTMPSEVREEEIRGVSGMAIELIDASGKLVDSTVSDQHGNYRFRALSETGDYQVRLSESGEAMDVLVAHGAERIRGLDFIVLALGKRGAGAYLPAQQIDVQSSLLSDPSKVAGKTYDYIIAGGGLTGLTVAAKLTENPKIKVLVIEKGFYESNDGAIIEDPNAYGQIFGTTVDQNYLTVPLINNRTNNIKAGKGLGGSTLINGDSWTRPDKVQIDSWEKVFGMEGWNWDNMFEYMKKAEAARTPTAAQLAAGHSFNATCHGTNGTVQSGARDNGQPWSPIMKALMNTVSALGVPVQQDFLCGHPRGVSMIMNNLDENQVRVDAARAWLLPNYQRSNLEILTGQMVGKVLFKQTASGPQAVGVNFGTNKAVNFDVFAKHEVLLAAGSAISPLILEYSGIGLKSVLDQANVTQLLDLPVGINMQDQTTTTVSSRASSAGAGQGQAVFFANFTETFGDYAPQARDLLNTKLDQWAEETVARGGFHNVTALKVQYENYRNWLLDEDVAFAELFMDTEGKINFDLWDLIPFTRGSVHILSSDPYLWQFANDPKFFLNEFDLLGQAAASKLARDLTSQGAMKEYFAGETLPGYNLVQNATLSQWSDYVLQNFRPNWHAVSSCSMMSRELGGVVDATAKVYGTQGLRVIDGSIPPTQVSSHVMTIFYGMALKVADAILDDYAKSA
notes: 6His (in the pET21a vector behind the XhoI site); made in house; host or cells: E. coli BL21Star (DE3)
As to B1, where the note is “other: dimer/monomer”, the Km was found to be 66900 ± 24100 µM, the kcat worked out at 0.00305 s⁻¹ and the catalytic efficiency (kcat/Km) was 0.046 ± 0.025 M⁻¹ s⁻¹. For the same protein, under “other: excluded”, the Km came out at 2270 ± 1300 µM, the kcat worked out at 0.00133 s⁻¹ and the catalytic efficiency (kcat/Km) stood at 0.586 ± 0.384 M⁻¹ s⁻¹. For the same protein, where the note is “other: trimer”, the Km is 2022 ± 644 µM, the kcat was 0.0022 s⁻¹ and the specificity constant (kcat/Km) was determined as 1.09 ± 0.801 M⁻¹ s⁻¹.

Broadly, the Km is the substrate concentration at which the rate is half of its maximum. What is called kcat is the number of substrate molecules converted per active site and unit of time at saturation. Broadly, the kcat/Km is the turnover number divided by the Michaelis constant.

(Values after patent publication US20260201347A1, “ARTIFICIAL BIFUNCTIONAL ENZYME COMPRISING A MYELOPEROXIDASE ACTIVITY AND A GLUCOSE OXIDASE ACTIVITY AND APPLICATIONS THEREOF” (UNIVERSITÉ DE BORDEAUX, priority 2022, published 2026).)
